Assay results from the RNAGym collection of RNA variant scans (doi:10.7554/elife.80360).

B1: HDV Ribozyme (parent)
chain: GGCCGGCAUGGUCCCAGCCUCCUCGCUGGCGCCGGCUGGGCAACAUUCCGAGGGGACCGUCCCCUCGGUAAUGGCGAAUGGGACCCA

Variants of: B1
Test: self-cleavage, relative activity (ratio to wild type); higher = more cleavage; co-transcriptional

Row | Variant | self-cleavage
1 | G34C C86U | 0.237
2 | G34C C86G | 0.19
3 | G34C G52U | 0.155
4 | G34C G52C | 0.267
5 | C33U G74A | 0.277
6 | C33U A78U | 0.378
7 | G34C A83G | 0.0959
8 | G34C A83C | 0.0898
9 | C33U G67U | 0.816
10 | C33U G67C | 0.771
11 | G34C U65C | 0.573
12 | G34C C63G | 0.0378
13 | G34C C63A | 0.166
14 | C33G C66U | 0.181
15 | C33G G76A | 0.185
16 | C33G G76C | 0.229
17 | G34C G73C | 0.17
18 | G34C G73A | 0.106
19 | G34U C58A | 0.111
20 | G34U C58G | 0.0811
21 | C33U U46G | 0.65
22 | C33G G67A | 0.089
23 | C33G G67C | 0.0978
24 | G34A G82C | 0.261

Row | Variant | self-cleavage
25 | G34A C36U | 0.0623
26 | C33G C86A | 0.146
27 | C33G C86G | 0.151
28 | G34A G52C | 0.0545
29 | G34A G52U | 0.143
30 | G34A G52A | 0.286
31 | C33U G55A | 0.972
32 | G34C A87C | 0.224
33 | G34C A87U | 0.192
34 | G34C A87G | 0.089
35 | G34C A70G | 0.0898
36 | G34U C64G | 0.277
37 | G34U C64A | 0.268
38 | C33U A70C | 0.931
39 | C33U A70U | 0.755
40 | C33U C58G | 0.929
41 | C33U C58U | 0.917
42 | G34A G80U | 0.0903
43 | G34A G80C | 0.0819
44 | G34C A45G | 0.147
45 | G34U A43C | 0.243
46 | G34U A43G | 0.0978
47 | G34U A43U | 0.104
48 | G34C G50A | 0.287

Row | Variant | self-cleavage
49 | C33G G55C | 0.158
50 | C33G G55A | 0.218
51 | G34C G54A | 0.166
52 | C33U C84A | 0.65
53 | C33U C84U | 0.479
54 | C33U C84G | 0.628
55 | C33U C64U | 0.785
56 | C33U C64A | 0.591
57 | G34A G35U | 0.113
58 | G34A G35A | 0.145
59 | G34A G35C | 0.0378
60 | C33G U69C | 0.277
61 | C33G U69A | 0.201
62 | G34U A70G | 0.0997
63 | G34U A70U | 0.182
64 | G34U A70C | 0.17
65 | G34A A42G | 0.178
66 | G34A A42C | 0.0354
67 | G34A A42U | 0.0326
68 | G34A G38U | 0.138
69 | C33U C63G | 0.698
70 | G34A U47C | 0
71 | C33G U46G | 0.208
72 | C33G U46C | 0.185

Row | Variant | self-cleavage
73 | C33U C75A | 0.0923
74 | C33U G52C | 0.596
75 | G34U A71G | 0.154
76 | G34U A71U | 0.208
77 | C33G C61A | 0.193
78 | C33G C61G | 0.19
79 | C33G C61U | 0.212
80 | C33G C49U | 0.0923
81 | C33G C49G | 0.0978
82 | G34A U46A | 0.121
83 | C33U G50U | 0.92
84 | G34C G82A | 0.0308
85 | G34C G82U | 0.0652
86 | G34A A78C | 0.157
87 | G34A A78G | 0.157
88 | C33G G81A | 0.128
89 | C33G G81C | 0.151
90 | G34A U79A | 0.0755
91 | G34A U79C | 0.0773
92 | G34A U79G | 0.0875
93 | G34C C75U | 0.0405
94 | G34C C75A | 0.131
95 | G34C C75G | 0.131
96 | G34A U60G | 0.237

Row | Variant | self-cleavage
97 | G34A C86U | 0.176
98 | G34A C86G | 0.121
99 | G34C G40U | 0.151
100 | G34U C48G | 0.151
101 | G34U C48U | 0.112
102 | G34U C48A | 0.251
103 | G34A A51U | 0.174
104 | G34A A51G | 0.0504
105 | G34C C36U | 0.0332
106 | C33G G50U | 0.131
107 | G34A C63U | 0.0656
108 | C33U G34A | 0.293
109 | C33U G34C | 0.0978
110 | G34C C48G | 0.162
111 | G34C C62U | 0.262
112 | G34C C62A | 0.162
113 | C33G G82C | 0.0405
114 | C33U U37A | 0.17
115 | C33U U37G | 0.0462
116 | C33G G59A | 0.188
117 | C33G G59U | 0.111
118 | G34C C58G | 0.287
119 | G34U C63A | 0.164
120 | G34U C63U | 0.166

Row | Variant | self-cleavage
121 | G34A A70C | 0.0941
122 | G34A A56C | 0.151
123 | C33U G82C | 0.245
124 | C33U U47C | 0.682
125 | C33U U47G | 0.692
126 | C33U U47A | 0.872
127 | C33U A56C | 0.658
128 | C33U A56G | 0.665
129 | G34C G80U | 0.203
130 | C33U | 0.847
131 | C33U U79G | 0.429
132 | C33U U79C | 0.325
133 | G34C C61G | 0.231
134 | G34A A77G | 0.0639
135 | G34A A77C | 0.095
136 | G34A A71C | 0.0604
137 | G34C C57A | 0.288
138 | G34A C57A | 0.13
139 | G34A C57G | 0.0997
140 | G34A A45G | 0.199
141 | G34A A45C | 0.299
142 | C33G G73C | 0.253
143 | C33G G73A | 0.0308
144 | C33G G73U | 0.138

Row | Variant | self-cleavage
145 | G34A G81U | 0.07
146 | C33G G68A | 0.177
147 | C33G C85A | 0.175
148 | C33G C85U | 0.122
149 | G34U C75G | 0.214
150 | G34U C75A | 0.107
151 | G34U C75U | 0.109
152 | G34A A87U | 0.196
153 | G34U A51C | 0.0707
154 | G34U A51G | 0.339
155 | G34A C85U | 0.163
156 | G34A C85A | 0.199
157 | C33U A51U | 0.848
158 | C33U A51C | 1.3
159 | C33G G38C | 0
160 | G34U A83G | 0.169
161 | C33U C48G | 1.05
162 | C33U C48U | 0.847
163 | G34C C49G | 0.264
164 | C33U G38C | 0.125
165 | C33U G38U | 0.0978
166 | G34A U72G | 0.0326
167 | G34A U72C | 0.0692
